Data published in the supplement of paper PMC12455559.

Experiment: purified protein yield per well (BCA); higher = higher soluble expression
In short: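 Expression was done in E. coli C41(DE3), using 2 mL autoinduction cultures with 100 µg/mL kanamycin incubated at 37 °C for 2 h and at 18 °C for 40 h. Protein was purified on Ni-charged magnetic beads and released by SUMO protease cleavage. Yield of purified protein per well was measured with the Pierce Rapid Gold BCA kit; values below 25 ug (0.1 mg/mL) are below detection.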

Purified protein yield per well, < 25 µg:
MEAIVRRGGTRGQVTGILVAVLAMVVALAGAVLAARPALAQPRDTAPGNPYQRGPDPTVAMIEASAGPFATASTSVPAGHGFNGGTVYYPTDTSLGTWGALAIVPGYSALFANEEAWMGPWLASFGFVVIGVETTTRTDSADARGTELLAALNYLTTQSPVRDRVDPNRLSVLGHSAGGAGAMLAAERQPTLKAAVGLAPGSPVGNLSLAADTVPTMVIGGQNDAVVTPSYLSGLYATMPASTQSDFAQVAGADHVYYTHPNNVEMKLLIPWLKTFLDNDTRYTPFLCPAPPDPSSISLYTPKCPYVPGGSAPGGGNTGALHAVGAAKCLAAPSTGAPGAQVTIGTCGGQAGQIWTHTAAAQLTVTLGGATLCLDASGQGSSPGTKVIVWSCNGQVNQQWNLNADGTVTGAQSGLCLDVTGASTADGAPVELWSCNGGGNQQWHLG [TEP068]
MFSASTFAYNPAPPPPSPTPTPTPGPLPGQPNDGFQRGPNPSVSLLEAERGPFSVRNARVSSSVRGFGGGTIYYPTGTTGTMGAIVVIPGYVSPESSIAWWGPKMASHGFVVMTIATNRTTDQPSSRATQINAALDYLISQNSTSGSPVRNMIDTDRLGVMGWSMGGGGTLRVASQNRLKAAIPLAPYDTISFRNVDAPTLIFGCESDTVAPVRNHASPFYNQIPAGTDKAFVELNGGSHTCANGGNQYNDVLSRLGVSWMKRHLDNDTRYSQFLCGPNHTSDRDISEYRGNCPY [DP070]
MGFGGGTIYYPTTSGQYGAIAVCPGFTGTSSSISWFARRLATHGFVTIAMNTTTTLDYPSSRATQLAAALRYLLNSSSSTIRSRIRTADRGVAGHSMGGGGTLIASANDSTLRAGIPMTPWNTYTSFSSVRVPQMIFGADGDTIAPYATHARPFYNSISLAEKAYALLNGAGHFTPNSTDQRIRRYGVAFAKRFVDGDTRYNPFLCGAEHTAYATSSRFQTYLSNCPY [ESM185]
MGPWLASFGFVVLGIETNSRTDGADARATQLLAGLDYLTRTSPVRSRVDPNRLSVMGHSAGGAGTLLAALRRPSLRTAVGLAPGTPGNNLNMSTTQVPTLLLSGQNDGTVTPSYVQGIYNTLPAGVEHAWAELAGNDHLSFTRSNPTEMRLLIPWLKIFLDYDTRYTQFLCPLSNSTGVSRYSSTCPLVPPGGPTVPPTTTPPPTTPPPTTPPTTPPPTTPPPTTPPPGTACTATYRTIGSWSGGFQGEVTVTAGSAAVDGWTARWQLASGQGISQVWNGTLSTSGTTVTVRNADYNGTLAPGTSTTFGFLGTGTPNSPSPTCTSP [ESM008]
MGSNPYQRGPDPTTSSLEASRGPFSVASFTVSRPSGYGAGTVYYPTNAGGKVGAIAIVPGYTARQSSINWWGPRLASHGFVVITIDTNSTLDQPSSRSSQQMAALRQVVSLSGTSSSPIYNKVDTSRLGVMGWSMGGGGSLISARNNPSLKAAAPQAPWNSSKNFSSVTVPTLIIACENDTIAPVNSHALPFYNSMSRNPKQYLEINGGSHSCANSGNSNQALIGKKGVAWMKRFMDNDTRYSSFACSNPNSSSVSDFRTENCSAS [TEP184]
MGVRYPEQGGFGGVAAVPGYNSAEKAVAWLGPRLASQGFVVITIATKGRSDQPTARGKQLLAALDYLTAKSPAAVRQRLDPQRLAVTGHSMGGGGSLYAAWTRPGLKAAVPLAPWHSIKNWSGITVPTLVQGGTSDDVAPVGTHAEPIYRSLTGARERAYAESAGADHGTFVREDPLIGALTVAWLKRFVDDDARYEQFLCPAPADPGLTEYRHSCPSS [TEP121]
MHPSFPESEDPAPAARHSAAPLSRDCAHPPARRSTHRTAHRIAHRTARPDRSRRRIRGVLAAATAALLAVAGLTLIPNASAAENPFERGPAPSASSLAAARGPFATSQVTVSSRDASGFGGGTIYFPTSGDEGTFGAVAVAPGFTASRSSMAWLGPRLASQGFIVFNIDTITRSDQPASRGRQLLAALDFLVERSPIRDRVDPDRLAVMGHSMGGGGALEAAESRPTLRAAIPLTPWNLNKNWSRVQVPTMVIGAERDTIASVRFHSEPFFDSLPSDLDKAYLELNNASHFAPNIPNATISSFSVAWLKRFVDDDTRYEQFLCPPPRPAGEISEYQDTCARAS [TEP191]
MIYYPTDTSQGTFGAIAISPGYTALFSVELAWMGPRLASQGFVVIGIETNDRNDFDTARGTQLLAALDYLTGQSSVRSRVDPNRLAVAGHSMGGGGAFSAALRRPALKAAVGFTPFSPSQNLTNMQVPALLYSGQYDTVTTPSSVSNLYNGLPSTTEGAYIEAAGLDHSFPTRPNTLLMRTMIPWVKIFLDNDLRYTQFLCPLMDSSGVLQYRNTCPLVPPGLPSPSPTTAPPTTAPPTTAPPTTAPPTTAPPTTAPPTTAPPTTAPPSGACTATYQTIGSWPGGFQGEVTVRAGNSAINGWTVGWSLGSGQSITQIWNGTLSTSGSSVSVRNVSYNGSLPAAGTATFGFLGSGSPSTPSTVTCTSP [ESM001]
MKSSGSAFRDPSGTVPTGRPAGRSWRYALALVAATTTLVALTVAGGTQQATGADNPYQRGPDPTRASVSANRGTFATAQVSVPAGNGFGGGVIYYPTDTSQGRFGAIAVVPGYTATWAAEGAWMGHWLASFGFVVIGIDTNSRNDWDNARGTQLLAALDYLTQRSSVRDRVDASRTSVMGHSMGGGGAANASLQRPTLKTAIGLAPASFSQNLTTTKVPTMLLAGQYDGTVTPSSVLNLYNGIPAGVEKAYLELTGAGHGFPTSNNPTMMRTIIPWFKIFVDSDTRYTQFLCPLADTNGIRTYQSTCPLVPSTPPTSTSTTTTTTGVPTGSTYVGQQSGRCLDVTGQSQTNGAKAQLWDCNGQSNQKWTLTSAAELRVYGGKCLDLPSNSAAGTQAQIWDCNGQSNQKWTHGTDGSIRHTQTGLCLDANGQGTANGTQVNSWNCNGQTNQKWTRR [TEP008]
MLRVTHHPPPGGTDSARTRTALPAPGAAPPRPGLPRRRGRLVTLAAAGIAAALVGLFTMTVATGTASAADNPYQRGPDPTRSSVASVNGPFANTSVAVPTGYGFNGGRIYYPTDTSQGTFGAVAISPGYNALFSAELAWMGPWLASHGFVVIGIETNSRNDFDTARGTQLLAALDYLVQQSPVRDRIDPNRLAVSGHSMGGGGALSAALRRSSLKAAVGIAPYSPSSNLANDRVPTMVFAGQADTVVTPSYATGLYNSLPVTTESAYLEVAGADHGFMVGRSNPVLIRTMLPFLKMFVDNDARYSQFLCPLADNNGVVSYRSTCPLLPSTPTTPPPTPSDTPPPTPSQTPTSSPTGNPPGTASLIVGAQSNRCLDVPNASRANGTRVQLWDCNRQANQSWTYTSGKQLRVYGDMCLDAAGSGNGAAVQIYGCHSQTNQQWNVNANGTISSVQSGRCLDVWSTANGAQVQLYDCHGQTNQRFTLTPLT [TEP176]
MPGDALTDPWQNGRSDDGERGDTRRLHHIVRPVDLGGLSTEAEGHPLVLGFASDAGVRRNRGRPGAAEGPAAIRRMLSNLAAHELQTLLDAGDITCEGEALEAAQQACALALAKALSLGAFPVLLGGGHEIAVASFMGLRRYLDDQGDAGKVLVLNIDAHLDLRTSRPPSSGTPFDEIARYCEAHGHAWRYACIGVSKPSNTAALFARADEIGQAPTATNIYGNGSFSVASSSISPLVSGFGGGVVYYPTAPGLYPVVAVSPGFTATWSSISWIGPRLASWGFVVVGIETNTLLDQPSSRGQQLLAALNWAVSSSAPSAVRSRADGTRRGVAGHSMGGGGSLEALAMDTTGNVKAAVPIAPWNTDKTWNNVNEPVLIVGGQWDTVAPVATHSIPFYNTLAGPKAYVELNNATHFFPQFDDAMTSRALVAWFKRWLNNDTRFTPFTCGFSGLSISDFRSNAC [TEP180]
MPRDGERKQKPEGARVRAYRAGPGSPPRPPRPVRLALLAVAFVTAAVAALFAVQPASAQPSAAAVTPNSTQRGPDPTIQSIEASRGTFATAQSSVAPGNGFNGGVIYYPTDTSQGTWGALAIVPGYTAKCANEEAWMGPWLASFGFVVICIETNSTTDFDVARGQELLAALNWLTTASPVRNEIDPNRLAVLGHSAGGAGAIEAAEQRPSLRAMIGLAPGFPGQGLSMLTDRVPTLVVGGQNDTVVTPSYLSGLYATMPASTQSAFAQIAGADHVYYTHANNVEMKLIIPWLKIFVDGDTRYEQFLCPTLPDPSTISIYQPKCPYVPPGGGSPSPSASASASASASASASASASASASASASASSSPSASASASASSSPSGVPAGGCAAVYQAVGSWPGGYQAQVTVTAGGAPITGWSVRWNLSSGQSISSLWNGSYTVSGSSVTVANASYNGTLAAGASTTFGFTANGAPSTPTLTCTGK [ESM145]
MQVARDGSAFQSPPETSGGIRSWRPTGRLWQRGVAAVAAAATLGALTIALTAVQPAAGAENPYQRGPDPTPASVSANRGTFATAQVSVPAGNGFGGGVIYYPTDTSQGKFGAIAIVPGYTATWAAEGAWMGPWLASFGFVVIGIDTNTRNDWDNARGQQLLAALDYLTQRSSVRDRVDATRTAVMGHSMGGGGAAYASLQRPSLKTSIGLAPASFSQNLTTTKVPTMLLSGQNDTTVSPASVLSLYNGIPAGVEKAYLELSNVGHLFPTSNNPTMMRNIIPWFKIFIDSDTRYTQFLCPLSNTTGIRSYQSTCPLVPSTPPTTTTTTTTTSTTTTTDTTTTTTDTTTTTTDSTTSTTTTTPGSGPSCTAAYTVVNQWGGGFQAEVRVAAGSTPISGWTVTWAWANGQTVTQQWSATITSSGPNVTAVNVGYNGNLGAGAATTFGFIASVNGANTPPTLACAAR [ESM022]
MRDGPKFGTATVYYPENAQAPYASLLIVTGFVHPESAMKAWGPFLASHGIVTLTIGTNKLKDDPFKRRDALLDAVRSLKAEHLRKDSPLWHKLALDRIGVAGWSMGGGGAQLAAAADPSLRAVIGFCPWLPKANFEHPVPSLIIAGTLDSIANVFLNARAHYAGISETTPKLIIEIPYGGHWIANDPANANGAIGQIGLSWLKVYLEGDTRYRQFLLTPPISGGYFRHNLE [TEP077]
MREHEDAMSGGRMPSGARPPRLIGLAVAAIAAVVTMIAAMLAVGPVSAQPAPTAVTPHSTQRGPDPTLAMIEASRGPFATAQQGVAPGNGFNGGEIYYPTDTSQGTWGALVIIPGYTARCVNQPAPEEAWMGPWLSSFGFVVLCMETNSPNDFDTARGQEALAALNWLTTASPVRGEVDPNRLSVMGHSMGGGGVVYAVEHQPSLRAGIGLAPFSPSQNMAGDKVPTLILGGQNDSTVTPSYLSGLYATMPAATQSAFAQIAGAGHGFYTSPNNVMMKLAIPWLKVFVDSDNRYEQFLCPTLPDPSQISIYRSKCPYVPPGGGPTSTTTTPPPPAGACQAVYQPQNSWPGGFQGLVTVTAGSSPVSGWTVTWALSGGQAITQLWSGNLTTSGSAVTVKNASYNGSLAAGASATFGFTATGAASTPTLTCTSP [ESM146]
MRRSLPPSAEAGTAVGGAGPGRPARPVLPLAAVALTLVAAVTAALLAIRPATTDAKSSQRGPDPTLAGVAAATGPFTTAQVSVPPGDGFNGGTIYYPADTSRGTWAAVAISPGYTALFADEEAWMGPRLASFGFVVIGIETDSRTDYDSQRGTQLLAALDYLTTQSPVRNRVDPRRLGVIGHSMGGGGVVYAAENRPSLKAAVALAPYSPTQDMSTDTVPTMVIDGQNDTVVTPAAVDALYATLPASTRSAFMQIDGADHAYYTHPNPVEMRVLIPWLKIFLDNDTRYTRFLCPSPADPSGVSSYHSRCP [TEP071]
